Assay results as given in US20120220015A1 (BIOLEX THERAPEUTICS, published 2012).

Experiments:
Experiment in all cases: cell-based or functional assay
[1] = biological target: Lemna-derived plasmin from transgenic line BAP12-B2-150 (aglycosylated plasmin derived from mature human … (human, UniProt P00747 97-580; P00747 581-810)
[2] = biological target: Lemna-derived plasmin from transgenic line BAP01-B2-230 (derived from mature human plasminogen with the … (human, UniProt P00747 97-580)); P00747 581-810, Asn-289 of mature plasminogen (Asn-212 of plasmin) partly N-glycosylated)
[3] = biological target: human reference plasmin (commercial, human-derived plasmin) (human)
Sequence of human reference plasmin (commercial, human-derived plasmin) (human) (P00747 20-580, chain 1 of 2): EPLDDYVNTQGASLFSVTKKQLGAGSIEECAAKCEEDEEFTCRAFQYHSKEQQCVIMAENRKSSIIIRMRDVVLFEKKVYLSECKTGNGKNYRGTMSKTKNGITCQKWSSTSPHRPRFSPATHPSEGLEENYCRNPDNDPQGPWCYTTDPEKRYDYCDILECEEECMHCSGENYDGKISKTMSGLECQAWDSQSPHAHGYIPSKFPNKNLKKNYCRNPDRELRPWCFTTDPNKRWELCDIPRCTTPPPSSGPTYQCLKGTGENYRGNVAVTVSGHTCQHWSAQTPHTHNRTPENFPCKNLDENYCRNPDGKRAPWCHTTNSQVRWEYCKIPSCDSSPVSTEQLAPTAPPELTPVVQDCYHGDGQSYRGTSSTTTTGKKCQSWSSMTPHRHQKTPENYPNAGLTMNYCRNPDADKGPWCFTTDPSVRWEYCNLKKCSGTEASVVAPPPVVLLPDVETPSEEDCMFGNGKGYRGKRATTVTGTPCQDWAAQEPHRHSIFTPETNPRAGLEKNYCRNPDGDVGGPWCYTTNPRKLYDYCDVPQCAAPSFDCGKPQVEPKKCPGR
Sequence of human reference plasmin (commercial, human-derived plasmin) (human) (P00747 581-810, chain 2 of 2): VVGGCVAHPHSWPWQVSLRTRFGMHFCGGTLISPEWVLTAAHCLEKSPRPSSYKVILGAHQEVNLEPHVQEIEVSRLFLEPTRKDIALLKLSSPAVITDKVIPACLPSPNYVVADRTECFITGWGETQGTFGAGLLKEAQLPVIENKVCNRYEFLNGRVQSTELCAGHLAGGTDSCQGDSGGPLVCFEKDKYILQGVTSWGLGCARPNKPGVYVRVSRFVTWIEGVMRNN

Sequence of Lemna-derived plasmin from transgenic line BAP01-B2-230 (derived from mature human plasminogen with the … (P00747 97-580, form in doubt, chain 1 of 2): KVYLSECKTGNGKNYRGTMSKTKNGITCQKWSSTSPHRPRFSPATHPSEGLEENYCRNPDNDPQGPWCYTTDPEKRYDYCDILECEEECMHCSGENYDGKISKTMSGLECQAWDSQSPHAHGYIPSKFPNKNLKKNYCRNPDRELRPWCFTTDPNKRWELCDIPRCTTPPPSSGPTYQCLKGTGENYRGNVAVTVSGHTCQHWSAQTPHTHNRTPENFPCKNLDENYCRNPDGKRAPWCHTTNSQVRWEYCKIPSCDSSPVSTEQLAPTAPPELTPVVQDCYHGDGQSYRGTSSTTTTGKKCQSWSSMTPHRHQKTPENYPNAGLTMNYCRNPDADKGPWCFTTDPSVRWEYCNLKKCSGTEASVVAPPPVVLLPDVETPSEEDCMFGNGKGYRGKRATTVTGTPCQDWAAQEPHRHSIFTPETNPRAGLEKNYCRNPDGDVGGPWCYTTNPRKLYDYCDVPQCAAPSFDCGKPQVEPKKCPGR
Sequence of Lemna-derived plasmin from transgenic line BAP01-B2-230 (derived from mature human plasminogen with the … (P00747 581-810 I701V, form in doubt, chain 2 of 2): as the sequence (P00747 581-810, chain 2 of 2) above, with I121V counted along it
Sequence of Lemna-derived plasmin from transgenic line BAP12-B2-150 (aglycosylated plasmin derived from mature human … (P00747 97-580 N308D, form in doubt, chain 1 of 2): as the sequence (P00747 97-580, form in doubt, chain 1 of 2) above, with N212D counted along it
Sequence of Lemna-derived plasmin from transgenic line BAP12-B2-150 (aglycosylated plasmin derived from mature human … (P00747 581-810 I701V, form in doubt, chain 2 of 2): as the sequence (P00747 581-810, chain 2 of 2) above, with I121V counted along it

B1: α2-antiplasmin (other, UniProt P08697 40-491, looked up)
chain: NQEQVSPLTLLKLGNQEPGGQTALKSPPGVCSRDPTPEQTHRLARAMMAFTADLFSLVAQTSTCPNLILSPLSVALALSHLALGAQNHTLQRLQQVLHAGSGPCLPHLLSRLCQDLGPGAFRLAARMYLQKGFPIKEDFLEQSEQLFGAKPVSLTGKQEDDLANINQWVKEATEGKIQEFLSGLPEDTVLLLLNAIHFQGFWRNKFDPSLTQRDSFHLDEQFTVPVEMMQARTYPLRWFLLEQPEIQVAHFPFKNNMSFVVLVPTHFEWNVSQVLANLSWDTLHPPLVWERPTKVRLPKLYLKHQMDLVATLSQLGLQELFQAPDLRGISEQSLVVSGVQHQSTLELSEVGVEAAAATSIAMSRMSLSSFSVNRPFLFFIFEDTTGLPLFVGSVRNPNPSAPRELKEQQDSPGNKDFLQSLKGFPRGDKLFGPDLKLVPPMEEDYPQFGSPK
- percent of plasmin inhibited, no pre-incubation with α2-AP, molar ratio of 1:1 (S-2403 chromogenic assay) [1]: 60%
- percent of plasmin inhibited, no pre-incubation with α2-AP, molar ratio of 1:1 (S-2403 chromogenic assay) [2]: 60%
- percent of plasmin inhibited, no pre-incubation with α2-AP, molar ratio of 1:1 (S-2403 chromogenic assay) [3]: ~90%
